The text below walks through data of patent US20250059273A1 (UNM RAINFOREST INNOVATIONS, published 2025).

The target in assay [1] is T1, human P2X4 peptide (human, UniProt Q99571 301-313).
T1 construct: range 301-313; The range 301-313 is stated for rat P2X4R, with the human peptide as its 'human form'; also called human Target P2X4R peptide; thirteen amino acid extracellular peptide fragment of human P2X4 receptor
T1 peptide (looked up): RDLAGNEQRTLIK
The assay is described as follows: indirect ELISA, wells coated with human P2X4 peptide, anti-His detection. For orientation: ELISA stands for enzyme-linked immunosorbent assay.

Assay [2] concerns the target T2, rat P2X4R extracellular peptide (a.a. 301-313, C-RDLAGKEQRTLTK) (rat, not fully specified (N-terminus)).
T2 construct: also called P2X4R peptide; rat P2X4 peptide
T2 peptide: RDLAGKEQRTLTK
Briefly: indirect ELISA titration on P2X4R peptide; legend box headed 'APPARENT Kd (nM)'.

In assay [3] the target is human and mouse peptide targets. The assay is described as follows: not stated (estimated affinity).
Assay [4] concerns the target T3, Hu CCK-B receptor protein (human, UniProt P32239 1-447, limits assumed).
T3 construct: also called human CCK-B receptor
T3 sequence (looked up): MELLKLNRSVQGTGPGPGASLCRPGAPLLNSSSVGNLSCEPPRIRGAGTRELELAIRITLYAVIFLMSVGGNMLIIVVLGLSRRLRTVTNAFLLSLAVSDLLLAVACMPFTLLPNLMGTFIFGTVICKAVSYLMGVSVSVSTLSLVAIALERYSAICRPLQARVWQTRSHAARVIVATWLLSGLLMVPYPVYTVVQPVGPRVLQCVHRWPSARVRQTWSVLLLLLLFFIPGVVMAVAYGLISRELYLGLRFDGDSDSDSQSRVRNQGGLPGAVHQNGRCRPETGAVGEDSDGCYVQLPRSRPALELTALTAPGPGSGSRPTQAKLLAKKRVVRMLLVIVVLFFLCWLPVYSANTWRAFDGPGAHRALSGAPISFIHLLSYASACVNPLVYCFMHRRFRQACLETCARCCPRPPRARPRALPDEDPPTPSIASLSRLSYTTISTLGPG
The assay is described as follows: indirect ELISA on human CCK-B receptor protein, concentration not shown.

In assay [5] the target is T2, rat P2X4R extracellular peptide (a.a. …). Briefly: indirect ELISA of purified scFv on rat P2X4 peptide, concentration not shown.
The target in assay [6] is T1, human P2X4 peptide. The assay is described as follows: indirect ELISA on human P2X4 peptide.

Ends that are not written are not given here. A value given as a limit tells only on which side of the number the result lay.

B1: P2X4-scFv95 (parental murine anti-P2X4R scFv) (scFv)
scFv: MAEVKLVESGGGLVQPGGSLRLSCATSGFTFTDYYMSWVRQPPGKALEWLGFIRNKANGYTTEYSASVKGRFTISRDNSQSILYLQMNTLRAEDSATYYCARWEGDLLYAMDYWGQGTSVTVSSGGGGSGGGGSGGGGGSGGGGSDIQMTQTTSSLSASLGDRVTISCSASQGISNYLNWYQQKPDGTVKLLIYYTSSLHSGVPSRFSGSGSGTDYSLTISNLEPEDIATYYCQQYSKLPWTFGGGTKLEIKRADAAALEHHHHHH
notes: also called mscFv95; clone 95
With B1, the values for the Kd (with human P2X4 peptide [1]; in assay [2]; in assay [3]) were 130 nM, 130 nM and 130 to 190 nM, respectively. For the same molecule, in assay [4], the binding result is “no binding”.

B2: P2X4-scFv103 (scFv)
scFv: MAQVQLKESGAELVRSGASVKLSCTASGFNIKNTYMHWVKQRPEQGLEWIGRIDPASGNTKYAPKFQGKATITADTSSNTAYLQLSSLTSEDTAIYYCARFYDGYYWGQGTTLTVSSAKTTAPSGGGGSGGGGSGGGGSGGGGSAIMSASPGEKVTMTCSASSSVSYMHWYQQKSGTSPKRWIYDTSKLASGVPARFSGSGSGTSYSLTISRMEAEDAATYYCQQYSGYGTFGGGTKLEIKRADAAALEHHHHHH
Take B2: in assay [2], the Kd was determined as 978 nM.

B3: humanized hP2X4R scFv HC3-LC3 (scFv)
scFv: MAEVQLVESGGGLVQPGGSLRLSCATSGFTFTDYYMHWVRQAPGKGLEWVGFIRNKANGYTTEYSASVKGRFTISRDNSKNTLYLQMNSLRAEDTAVYYCARWEGDLLYAMDYWGQGTLVTVSSGGGGSGGGGSGGGGSDIQMTQSPSSLSASVGDRVTITCRASQGISNYLNWYQQKPGKAPKLLIYYTSSLHSGVPSRFSGSGSGTDFTLTISSLQPEDFAYYYCQQYSKLPWTFGGGTKVEIKRAAALEHHHHHH
notes: HC-(G4S)3-LC with C-terminal His tag; also called hP2X4R HC3-LC3 scFv; HC3 LC3 hP2X4R scFv
B3 had a Kd with human P2X4 peptide [1] of 2.3 nM. In addition, the binding result in assay [5] is “binds”. Also, in assay [4], the binding result is listed as “no binding”. In addition, in the assay with human P2X4 peptide [6], the “fold affinity enhancement over parental mscFv95” value is > 50 fold and the “fold affinity improvement over parental mscFv95” value (shortened to “fold affinity improvement”) is > 10 fold.

B4: humanized P2X4R scFv HC1-LC1 (scFv)
scFv: MAEVKLVESGGGLVQPGGSLRLSCATSGFTFTDYYMSWVRQPPGKALEWLGFIRNKANGYTTEYSASVKGRFTISRDNSQSILYLQMNTLRAEDSATYYCARWEGDLLYAMDYWGQGTSVTVSSGGGGSGGGGSGGGGSDIQMTQTTSSLSASLGDRVTISCSASQGISNYLNWYQQKPDGTVKLLIYYTSSLHSGVPSRFSGSGSGTDYSLTISNLEQEDIATYYCQQYSKLPWTFGGGTKLEIKRAAALEHHHHHH
notes: HC-(G4S)3-LC with C-terminal His tag, expressed in E. coli
With B4, the Kd with human P2X4 peptide [1] amounted to 24 nM. The binding result in assay [5] is on record as “binds”; in assay [4], “no binding”.

B5: humanized P2X4R scFv HC3-LC1 (scFv)
scFv: MAEVQLVESGGGLVQPGGSLRLSCATSGFTFTDYYMHWVRQAPGKGLEWVGFIRNKANGYTTEYSASVKGRFTISRDNSKNTLYLQMNSLRAEDTAVYYCARWEGDLLYAMDYWGQGTLVTVSSGGGGSGGGGSGGGGSDIQMTQTTSSLSASLGDRVTISCSASQGISNYLNWYQQKPDGTVKLLIYYTSSLHSGVPSRFSGSGSGTDYSLTISNLEQEDIATYYCQQYSKLPWTFGGGTKLEIKRAAALEHHHHHH
notes: as for B4
In turn, B5 showed a Kd with human P2X4 peptide [1] of 4.7 nM. Also, the binding result in assay [5] is on record as “binds”; in assay [4], “no binding”. Further, the “fold affinity improvement” value with human P2X4 peptide [6] is > 10 fold.

B6: humanized P2X4R scFv HC2-LC3 (scFv)
scFv: MAQVQLQESGPGLVKPSQTLSLTCTTSGFTFTDYYMSWVRQAPGKGLEWIGFIRNKANGYTTEYSASVKGRFTISRDNSKNQFSLRLSSVTAADTAVYYCARWEGDLLYAMDYWGQGTTVTVSSGGGGSGGGGSGGGGSDIQMTQSPSSLSASVGDRVTITCRASQGISNYLNWYQQKPGKAPKLLIYYTSSLHSGVPSRFSGSGSGTDFTLTISSLQPEDFAYYYCQQYSKLPWTFGGGTKVEIKRAAALEHHHHHH
notes: HC-(G4S)3-LC with C-terminal His tag
As to B6, the Kd with human P2X4 peptide [1] turned out to be 29 nM. The figures for the binding result in assay [5] and in assay [4] were “binds” and “no binding”, respectively.

B7: P2X4-scFv12 (scFv)
scFv: MADVKLQESGPGLVKPSQSLSLTCSVTGYSITSGYYWNWIRQFPGNKLEWMGYISYDGSNNYNPSLKNRISITRDTSKNQFFLKLNSVTTEDTATYYCARSDYDLYYYAMDYWGQGTSVTVSSAKTTPPSGGGGSGGGGSGGGGGSGGGGSDIVMTQSPATLSVTPGDRVSLSCRASQSISDYLHWYQQKSHESPRLLIKYASQSISGIPSRFSGSGSGSDFTLSINSVEPEDVGVYYCQNGHSFPLTFGSGTKLEIKRADAAALEHHHHHH
As to B7, the Kd in assay [2] turned out to be 177 nM.

B8: humanized P2X4R scFv HC2-LC1 (scFv)
scFv: MAQVQLQESGPGLVKPSQTLSLTCTTSGFTFTDYYMSWVRQAPGKGLEWIGFIRNKANGYTTEYSASVKGRFTISRDNSKNQFSLRLSSVTAADTAVYYCARWEGDLLYAMDYWGQGTTVTVSSGGGGSGGGGSGGGGSDIQMTQTTSSLSASLGDRVTISCSASQGISNYLNWYQQKPDGTVKLLIYYTSSLHSGVPSRFSGSGSGTDYSLTISNLEQEDIATYYCQQYSKLPWTFGGGTKLEIKRAAALEHHHHHH
notes: as for B4
On to B8, for which the Kd in the assay with human P2X4 peptide [1] was found to be 12 nM. In addition, the binding result in assay [5] is recorded as “binds”; in assay [4], “no binding”. In the assay with human P2X4 peptide [6], the “fold affinity improvement” value is > 10 fold.
